In article PMC3043092 one finds stoichiometry N data, which are given here for 2 substances.

Experiment [1] has as its target Pisum sativum thioredoxin h1 (Pisum sativum). Put plainly: SEC; Superdex 75 HR 16/60, 1 ml/min, 25°C; 100 µl at 24 µM loaded; 50 mM buffer with 150 mM NaCl, pH >= 7.0; no reducing agent.
In experiment [2] the target is Pisum sativum thioredoxin f (Pisum sativum). The description is as above.

In general, stoichiometry N refers to a count of units in the complex or per binding partner. In experiment [1], “Pisum sativum thioredoxin h1 (natural protein)” yielded a stoichiometry N of 2. As for “Pisum sativum thioredoxin f (natural protein)”, in experiment [2], the stoichiometry N came out at 2.
